Positions count from the first letter of the chain named. Names and notes keep the numbering of the source.
T1: Ep-CAM (UniProt P16422 24-265, limits assumed)
T1 construct: Amine coupled to a CM5 chip in the Biacore assays
T1 sequence (looked up): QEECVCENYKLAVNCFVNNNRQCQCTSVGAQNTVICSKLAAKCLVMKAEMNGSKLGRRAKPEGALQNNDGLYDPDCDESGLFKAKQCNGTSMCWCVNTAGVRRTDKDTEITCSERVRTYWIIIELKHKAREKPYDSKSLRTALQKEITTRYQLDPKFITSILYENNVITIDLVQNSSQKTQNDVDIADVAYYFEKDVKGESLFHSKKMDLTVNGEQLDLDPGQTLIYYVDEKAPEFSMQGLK

T2: Ep-CAM (UniProt P16422 24-265, limits assumed)
T2 construct: Antigen of the Biacore analysis of ING-1 variants
T2 sequence (looked up): T1 sequence (looked up)

B1: ING-1 light chain E98N (Fab, V domains shown)
VH: QIQLVQSGPELKKPGETVKISCKASGYTFTKYGMNWVKQAPGKGLKWMGWINTYTEEPTYGDDFKGRFAFSLETSASTANLQINNLKSEDTATYFCARFGSAVDYWGQGTSVTVSS
VL: DIVMTQAAFSNPVTLGTSGSISCRSSKSLLHSNGITYLYWYLQKPGQSPQLLIYQMSNLASGVPDRFSSSGSGTDFTLRISRVEAEDVGVYYCAQNLNLPRTFGGGTKLEMKR
notes: Fab, periplasmic extract
B2: ING-1 light chain P100E (Fab, V domains shown)
VH: B1 VH
VL: B1 VL with N98E, P100E
notes: Fab, periplasmic extract
B3: ING-1 light chain K27N (Fab, V domains shown)
VH: B1 VH
VL: B1 VL with K27N, N98E
notes: Fab, periplasmic extract
B4: ING-1 light chain L29R (Fab, V domains shown)
VH: B1 VH
VL: B1 VL with L29R, N98E
notes: Fab, periplasmic extract
B5: ING-1 light chain L99E (Fab, V domains shown)
VH: B1 VH
VL: B1 VL with N98E, L99E
notes: Fab, periplasmic extract
B6: ING-1 light chain L30E (Fab, V domains shown)
VH: B1 VH
VL: B1 VL with L30E, N98E
notes: Fab, periplasmic extract
B7: ING-1 light chain N33K (Fab, V domains shown)
VH: B1 VH
VL: B1 VL with N33K, N98E
notes: Fab, periplasmic extract
B8: ING-1 light chain L30W (Fab, V domains shown)
VH: B1 VH
VL: B1 VL with L30W, N98E
notes: Fab, periplasmic extract
B9: ING-1 light chain L99K (Fab, V domains shown)
VH: B1 VH
VL: B1 VL with N98E, L99K
notes: Fab, periplasmic extract
B10: ING-1 light chain L97D (Fab, V domains shown)
VH: B1 VH
VL: B1 VL with L97D, N98E
notes: Fab, periplasmic extract
B11: ING-1 light chain L30R (Fab, V domains shown)
VH: B1 VH
VL: B1 VL with L30R, N98E
notes: Fab, periplasmic extract
B12: ING-1 light chain P100D (Fab, V domains shown)
VH: B1 VH
VL: B1 VL with N98E, P100D
notes: Fab, periplasmic extract
B13: ING-1 light chain L29W (Fab, V domains shown)
VH: B1 VH
VL: B1 VL with L29W, N98E
notes: Fab, periplasmic extract
B14: ING-1 light chain L29Q (Fab, V domains shown)
VH: B1 VH
VL: B1 VL with L29Q, N98E
notes: Fab, periplasmic extract
B15: ING-1 light chain L99N (Fab, V domains shown)
VH: B1 VH
VL: B1 VL with N98E, L99N
notes: Fab, periplasmic extract
B16: ING-1 light chain L99Q (Fab, V domains shown)
VH: B1 VH
VL: B1 VL with N98E, L99Q
notes: Fab, periplasmic extract
B17: ING-1 light chain L30K (Fab, V domains shown)
VH: B1 VH
VL: B1 VL with L30K, N98E
notes: Fab, periplasmic extract
B18: ING-1 light chain L99R (Fab, V domains shown)
VH: B1 VH
VL: B1 VL with N98E, L99R
notes: Fab, periplasmic extract
B19: ING-1 light chain K27S (Fab, V domains shown)
VH: B1 VH
VL: B1 VL with K27S, N98E
notes: Fab, periplasmic extract
B20: ING-1 light chain H31K (Fab, V domains shown)
VH: B1 VH
VL: B1 VL with H31K, N98E
notes: Fab, periplasmic extract
B21: ING-1 light chain P100H (Fab, V domains shown)
VH: B1 VH
VL: B1 VL with N98E, P100H
notes: Fab, periplasmic extract
B22: ING-1 light chain H31N (Fab, V domains shown)
VH: B1 VH
VL: B1 VL with H31N, N98E
notes: Fab, periplasmic extract
B23: ING-1 light chain I35N (Fab, V domains shown)
VH: B1 VH
VL: B1 VL with I35N, N98E
notes: Fab, periplasmic extract
B24: ING-1 light chain L29E (Fab, V domains shown)
VH: B1 VH
VL: B1 VL with L29E, N98E
notes: Fab, periplasmic extract
B25: ING-1 light chain K27W (Fab, V domains shown)
VH: B1 VH
VL: B1 VL with K27W, N98E
notes: Fab, periplasmic extract
B26: ING-1 light chain L99Y (Fab, V domains shown)
VH: B1 VH
VL: B1 VL with N98E, L99Y
notes: Fab, periplasmic extract
B27: ING-1 light chain L99S (Fab, V domains shown)
VH: B1 VH
VL: B1 VL with N98E, L99S
notes: Fab, periplasmic extract
B28: ING-1 light chain K27E (Fab, V domains shown)
VH: B1 VH
VL: B1 VL with K27E, N98E
notes: Fab, periplasmic extract
B29: ING-1 light chain L99H (Fab, V domains shown)
VH: B1 VH
VL: B1 VL with N98E, L99H
notes: Fab, periplasmic extract
B30: ING-1 light chain L29F (Fab, V domains shown)
VH: B1 VH
VL: B1 VL with L29F, N98E
notes: Fab, periplasmic extract
B31: ING-1 light chain H31R (Fab, V domains shown)
VH: B1 VH
VL: B1 VL with H31R, N98E
notes: Fab, periplasmic extract
B32: ING-1 light chain P100K (Fab, V domains shown)
VH: B1 VH
VL: B1 VL with N98E, P100K
notes: Fab, periplasmic extract
B33: ING-1 light chain L29Y (Fab, V domains shown)
VH: B1 VH
VL: B1 VL with L29Y, N98E
notes: Fab, periplasmic extract
B34: ING-1 light chain L29D (Fab, V domains shown)
VH: B1 VH
VL: B1 VL with L29D, N98E
notes: Fab, periplasmic extract
B35: ING-1 light chain L97R (Fab, V domains shown)
VH: B1 VH
VL: B1 VL with L97R, N98E
notes: Fab, periplasmic extract
B36: ING-1 light chain E98S (Fab, V domains shown)
VH: B1 VH
VL: B1 VL with N98S
notes: Fab, periplasmic extract
B37: ING-1 light chain L99D (Fab, V domains shown)
VH: B1 VH
VL: B1 VL with N98E, L99D
notes: Fab, periplasmic extract
B38: ING-1 light chain N33Y (Fab, V domains shown)
VH: B1 VH
VL: B1 VL with N33Y, N98E
notes: Fab, periplasmic extract
B39: ING-1 heavy chain Y105E (Fab, V domains shown)
VH: B1 VH with Y105E
VL: B1 VL with N98E
B40: ING-1 heavy chain Y105K (Fab, V domains shown)
VH: B1 VH with Y105K
VL: B1 VL with N98E
B41: ING-1 heavy chain Y105D (Fab, V domains shown)
VH: B1 VH with Y105D
VL: B1 VL with N98E
B42: ING-1 heavy chain Y105S (Fab, V domains shown)
VH: B1 VH with Y105S
VL: B1 VL with N98E
B43: ING-1 heavy chain Y54H (Fab, V domains shown)
VH: B1 VH with Y54H
VL: B1 VL with N98E

biological target: T1, Ep-CAM; assay: Biacore, Fab periplasmic extract

binding result	fold difference in affinity vs parental ING-1	Binder
no binding	–	B1
–	0.06 fold	B2
no binding	–	B3
no binding	–	B4
–	0.01 fold	B5
no binding	–	B6
–	0.7 fold	B7
no binding	–	B8
–	0.02 fold	B9
no binding	–	B10
no binding	–	B11
–	0.02 fold	B12
no binding	–	B13
no binding	–	B14
–	2 fold	B15
–	0.02 fold	B16
no binding	–	B17
–	0.04 fold	B18
no binding	–	B19

binding result	fold difference in affinity vs parental ING-1	Binder
–	0.05 fold	B20
–	0.05 fold	B21
–	0.5 fold	B22
–	0.5 fold	B23
no binding	–	B24
no binding	–	B25
–	1 fold	B26
–	0.04 fold	B27
no binding	–	B28
–	0.05 fold	B29
no binding	–	B30
–	0.06 fold	B31
–	0.03 fold	B32
no binding	–	B33
no binding	–	B34
no binding	–	B35
no binding	–	B36
–	0.02 fold	B37
–	0.8 fold	B38

biological target: T2, Ep-CAM; assay: Biacore, Fab periplasmic extract

binding result	fold difference in affinity vs original	Binder
no binding	–	B39
no binding	–	B40
no binding	–	B41
–	0.09 fold	B42
–	1 fold	B43

Source: US20110118131A1 (published 2011)
